Experimental findings from patent publication US20230002493A1 (ORIONIS BIOSCIENCES, published 2023) are described below.

Assay [1] has as its target T1, recombinant PD-L1 extracellular domain fused to the mouse IgG1 Fc domain (SinoBiologicals) (human; mouse, UniProt Q9NZQ7 19-238).
T1 construct: extracellular domain; also called human PD-L1-mouse Fc; PD-L1-mouse Fc protein; not shown: mouse IgG1 Fc domain
The assay can be described thus: BLI (Octet Red 96), PD-L1-mouse IgG1 Fc on AMQ biosensors, VHH dilution series; KD and kdis printed ND. As to the method:
(§1) Affinities of resulting variants were measured using the bio-layer interferometry technology on an Octet Red 96 instrument (ForteBio). In brief, recombinant PD-L1 extracellular domain fused to the mouse IgG1 Fc domain (SinoBiologicals) was immobilized on anti-murine IgG quantitation (AMQ) biosensors (ForteBio). Loaded sensors were incubated with a serial dilution of PD-L1 VHH variant, association and dissociation monitored and kinetic parameters were calculated using the Octet Data Analysis software v10 (ForteBio).
(BLI is a label-free optical method that tracks binding on a fibre tip over time.)

The target of assay [2] is T1, recombinant PD-L1 extracellular domain …. The assay can be described thus: BLI (Octet Red 96); ratio of the printed KDs, variant over 2LIG189.
Assay [3] has the same target. The experiment in a line: BLI as in Example 1; reference not named, taken as parental 2LIG189. As to the method:
as §1
The aspartic acid at position 1 was included to avoid the risk of pyroglutamate formation. […] Resulting mutants were purified and affinities measured as described in Example 1.

The target is the same in assay [4]. The experiment in a line: BLI (Octet Red 96), PD-L1-mouse IgG1 Fc on AMQ biosensors, VHH dilution series.
The target is the same in assay [5]. The assay can be described thus: BLI (Octet), PD-L1-mouse Fc on the sensor, VHH dilution series, as described above. The method, then:
as §1

Assay [6] shares this target. The experiment in a line: BLI as described above; reference not named.

T1 sequence (Q9NZQ7 19-238): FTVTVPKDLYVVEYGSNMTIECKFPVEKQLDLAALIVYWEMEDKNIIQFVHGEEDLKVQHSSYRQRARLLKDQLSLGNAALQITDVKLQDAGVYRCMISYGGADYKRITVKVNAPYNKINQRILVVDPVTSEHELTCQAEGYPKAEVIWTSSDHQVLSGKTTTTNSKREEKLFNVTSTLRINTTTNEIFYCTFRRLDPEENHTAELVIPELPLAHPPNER

B1: P-1665: 2LIG99_D54G (VHH)
VHH: QVQLQESGGGLVQAGGSLRLSCTASGTIFSINRMDWFRQAPGKQRELVALITSGGTPAYADSAKGRFTISRDNTKKTVSLQMNSLKPEDTAVYYCHVSSGVYNYWGQGTQVTVSS
notes: not shown: C-terminal His-tag
Take B1: the on-rate (kon) (usually the second-order rate constant of association) in assay [1] is 1.28e+06 M⁻¹ s⁻¹.

B2: 2LIG189 variant M97V (VHH, not shown: small tags and cut ends)
VHH: QVQLQESGGGLVQAGGSLRLSCAASGKIFSGNDMGWYRQAPGKQRELVGIITSGGITDYADAVKGRFTISRDNAKNMMYLQMNSLKPEDTAVYYCNVRDRTIWWGQGTQVTVSS
For the molecule B2, the “Ratio KD” value in assay [2] stood at 0.01. The “fold increase in affinity” value in assay [3] is no less than 2 fold. Further, in assay [4], the dissociation constant Kd – broadly, a measure of binding affinity in units of concentration – is 0.00599 nM; the dissociation rate constant (koff) (in general, the rate constant with which the complex falls apart) worked out at 3.81e-07 s⁻¹; the on-rate (kon) stood at 63700 M⁻¹ s⁻¹.

B3: SEQ ID NO: 72 (2LIG189 humanization variant with deamidation and oxidation risk sites removed) (VHH)
VHH: DVQLVESGGGLVQPGGSLRLSCAASGKIFSGNHMGWYRQAPGKQRELVGIITSGGITDYADAVKGRFTISRDNSKNTVYLQMNSLRPEDTAVYYCNVRDRTIWWGQGTLVTVSS
notes: also called 2LIG189 second wave variant
Turning to B3, in assay [5], the Kd worked out at 0.144 nM, the koff was determined as 7.71e-05 s⁻¹ and the on-rate constant (kon) was 536000 M⁻¹ s⁻¹. Besides, the “fold increase in affinity” value in assay [6] was determined as 40 fold.

B4: 2LIG189 variant N32Q (VHH, not shown: small tags and cut ends)
VHH: QVQLQESGGGLVQAGGSLRLSCAASGKIFSGQDMGWYRQAPGKQRELVGIITSGGITDYADAVKGRFTISRDNAKNMMYLQMNSLKPEDTAVYYCNMRDRTIWWGQGTQVTVSS
Take B4: the “Ratio KD” value in assay [2] turned out to be 0.16. Further, the “fold increase in affinity” value in assay [3] was no less than 2 fold. In assay [4], the Kd came to 0.125 nM, the dissociation rate constant (koff) amounted to 8.84e-06 s⁻¹ and the on-rate constant (kon) turned out to be 70500 M⁻¹ s⁻¹.
